{"source": "patent US20210388087A1", "about": "(Chugai, published 2021)", "binders": {"B1": {"name": "H183/L072 VH G52cI (antibody, name in Kabat numbering, V domains shown)", "VH": "QVQLVESGGGLVQPGRSLRLSCAASGFTFSNAWMHWVRQAPGKGLEWVAQIKDKINAYAAYYAPSVKGRFTISRDDSKNSIYLQMNSLKTEDTAVYYCHYVHYASASTVLPAFGVDAWGQGTTVTVSS", "VL": "DIVMTQSPLSLPVTPGEPASISCQASQELVHMNRNTYLHWYQQKPGQAPRLLIYKVSNRFPGVPDRFSGSGSGTDFTLKISRVEAEDVGVYYCAQGTSVPFTFGQGTKLEIK"}, "B2": {"name": "H183/L072 VH H35A (antibody, name in Kabat numbering, V domains shown)", "VH": "B1 VH with H35A, I55G", "VL": "B1 VL"}, "B3": {"name": "H183/L072 VH G65P (antibody, name in Kabat numbering, V domains shown)", "VH": "B1 VH with I55G, G68P", "VL": "B1 VL"}, "B4": {"name": "H183/L072 VH G100hL (antibody, name in Kabat numbering, V domains shown)", "VH": "B1 VH with I55G, G114L", "VL": "B1 VL"}, "B5": {"name": "H183/L072 VH H35I (antibody, name in Kabat numbering, V domains shown)", "VH": "B1 VH with H35I, I55G", "VL": "B1 VL"}, "B6": {"name": "H183/L072 VH G52cL (antibody, name in Kabat numbering, V domains shown)", "VH": "B1 VH with I55L", "VL": "B1 VL"}, "B7": {"name": "H183/L072 VH H35V (antibody, name in Kabat numbering, V domains shown)", "VH": "B1 VH with H35V, I55G", "VL": "B1 VL"}, "B8": {"name": "H183/L072 VH G65A (antibody, name in Kabat numbering, V domains shown)", "VH": "B1 VH with I55G, G68A", "VL": "B1 VL"}, "B9": {"name": "H183/L072 VH G52cV (antibody, name in Kabat numbering, V domains shown)", "VH": "B1 VH with I55V", "VL": "B1 VL"}, "B10": {"name": "H183/L072 VH G52cK (antibody, name in Kabat numbering, V domains shown)", "VH": "B1 VH with I55K", "VL": "B1 VL"}, "B11": {"name": "H183/L072 VH G52cT (antibody, name in Kabat numbering, V domains shown)", "VH": "B1 VH with I55T", "VL": "B1 VL"}, "B12": {"name": "H183/L072 VH G52cS (antibody, name in Kabat numbering, V domains shown)", "VH": "B1 VH with I55S", "VL": "B1 VL"}, "B13": {"name": "H183/L072 VH H35G (antibody, name in Kabat numbering, V domains shown)", "VH": "B1 VH with H35G, I55G", "VL": "B1 VL"}, "B14": {"name": "H183/L072 VH H35W (antibody, name in Kabat numbering, V domains shown)", "VH": "B1 VH with H35W, I55G", "VL": "B1 VL"}, "B15": {"name": "H183/L072 VH H93L (antibody, name in Kabat numbering, V domains shown)", "VH": "B1 VH with I55G, H99L", "VL": "B1 VL"}, "B16": {"name": "H183/L072 VH H93M (antibody, name in Kabat numbering, V domains shown)", "VH": "B1 VH with I55G, H99M", "VL": "B1 VL"}, "B17": {"name": "H183/L072 VH G52cW (antibody, name in Kabat numbering, V domains shown)", "VH": "B1 VH with I55W", "VL": "B1 VL"}, "B18": {"name": "H183/L072 VH G52cM (antibody, name in Kabat numbering, V domains shown)", "VH": "B1 VH with I55M", "VL": "B1 VL"}, "B19": {"name": "H183/L072 VH H93I (antibody, name in Kabat numbering, V domains shown)", "VH": "B1 VH with I55G, H99I", "VL": "B1 VL"}, "B20": {"name": "H183/L072 VH H35M (antibody, name in Kabat numbering, V domains shown)", "VH": "B1 VH with H35M, I55G", "VL": "B1 VL"}, "B21": {"name": "H183/L072 VH G52cR (antibody, name in Kabat numbering, V domains shown)", "VH": "B1 VH with I55R", "VL": "B1 VL"}, "B22": {"name": "H183/L072 VH H35Y (antibody, name in Kabat numbering, V domains shown)", "VH": "B1 VH with H35Y, I55G", "VL": "B1 VL"}, "B23": {"name": "H183/L072 VH H35N (antibody, name in Kabat numbering, V domains shown)", "VH": "B1 VH with H35N, I55G", "VL": "B1 VL"}, "B24": {"name": "H183/L072 VH H35S (antibody, name in Kabat numbering, V domains shown)", "VH": "B1 VH with H35S, I55G", "VL": "B1 VL"}, "B25": {"name": "H183/L072 VH H35L (antibody, name in Kabat numbering, V domains shown)", "VH": "B1 VH with H35L, I55G", "VL": "B1 VL"}, "B26": {"name": "H183/L072 VH G100hI (antibody, name in Kabat numbering, V domains shown)", "VH": "B1 VH with I55G, G114I", "VL": "B1 VL"}, "B27": {"name": "H183/L072 VH H35T (antibody, name in Kabat numbering, V domains shown)", "VH": "B1 VH with H35T, I55G", "VL": "B1 VL"}, "B28": {"name": "H183/L072 VH H35R (antibody, name in Kabat numbering, V domains shown)", "VH": "B1 VH with H35R, I55G", "VL": "B1 VL"}, "B29": {"name": "H183/L072 VH G100hA (antibody, name in Kabat numbering, V domains shown)", "VH": "B1 VH with I55G, G114A", "VL": "B1 VL"}, "B30": {"name": "H183/L072 VH H35E (antibody, name in Kabat numbering, V domains shown)", "VH": "B1 VH with H35E, I55G", "VL": "B1 VL"}, "B31": {"name": "H183/L072 VH H35P (antibody, name in Kabat numbering, V domains shown)", "VH": "B1 VH with H35P, I55G", "VL": "B1 VL"}, "B32": {"name": "H183/L072 VH G52cP (antibody, name in Kabat numbering, V domains shown)", "VH": "B1 VH with I55P", "VL": "B1 VL"}, "B33": {"name": "H183/L072 VH H35K (antibody, name in Kabat numbering, V domains shown)", "VH": "B1 VH with H35K, I55G", "VL": "B1 VL"}, "B34": {"name": "H183/L072 VH G52cY (antibody, name in Kabat numbering, V domains shown)", "VH": "B1 VH with I55Y", "VL": "B1 VL"}, "B35": {"name": "H183/L072 VH H35D (antibody, name in Kabat numbering, V domains shown)", "VH": "B1 VH with H35D, I55G", "VL": "B1 VL"}, "B36": {"name": "H183/L072 VH G52cQ (antibody, name in Kabat numbering, V domains shown)", "VH": "B1 VH with I55Q", "VL": "B1 VL"}, "B37": {"name": "H183/L072 VH G100hM (antibody, name in Kabat numbering, V domains shown)", "VH": "B1 VH with I55G, G114M", "VL": "B1 VL"}, "B38": {"name": "H183/L072 VH H35Q (antibody, name in Kabat numbering, V domains shown)", "VH": "B1 VH with H35Q, I55G", "VL": "B1 VL"}, "B39": {"name": "H183/L072 VH G65M (antibody, name in Kabat numbering, V domains shown)", "VH": "B1 VH with I55G, G68M", "VL": "B1 VL"}, "B40": {"name": "H183/L072 VH H93A (antibody, name in Kabat numbering, V domains shown)", "VH": "B1 VH with I55G, H99A", "VL": "B1 VL"}, "B41": {"name": "H183/L072 VH G100hP (antibody, name in Kabat numbering, V domains shown)", "VH": "B1 VH with I55G, G114P", "VL": "B1 VL"}, "B42": {"name": "H183/L072 VH H35F (antibody, name in Kabat numbering, V domains shown)", "VH": "B1 VH with H35F, I55G", "VL": "B1 VL"}, "B43": {"name": "H183/L072 VH G52cN (antibody, name in Kabat numbering, V domains shown)", "VH": "B1 VH with I55N", "VL": "B1 VL"}, "B44": {"name": "H183/L072 VH G65I (antibody, name in Kabat numbering, V domains shown)", "VH": "B1 VH with I55G, G68I", "VL": "B1 VL"}, "B45": {"name": "H183/L072 VH G65L (antibody, name in Kabat numbering, V domains shown)", "VH": "B1 VH with I55G, G68L", "VL": "B1 VL"}}, "note": "Changes are numbered by the printed parent chain. Names may count otherwise."}
{"target": "T1, Human CD3eg linker (human)", "T1 construct": "Single chain: epsilon and gamma subunits of human CD3 joined by a 29-mer linker, Flag-tag at the C-terminus; also called recombinant human CD3", "T1 chain": "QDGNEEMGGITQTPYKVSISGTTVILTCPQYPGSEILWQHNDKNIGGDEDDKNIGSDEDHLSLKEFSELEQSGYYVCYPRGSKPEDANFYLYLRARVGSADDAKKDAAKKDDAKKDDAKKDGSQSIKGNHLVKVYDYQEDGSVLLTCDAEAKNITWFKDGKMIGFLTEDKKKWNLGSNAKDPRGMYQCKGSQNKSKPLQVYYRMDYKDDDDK", "test": "Biacore SPR, vs template H183/L072", "units": {"fold change of affinity": "fold"}}
{"binder": "B1", "fold change of affinity": 1.1}
{"binder": "B2", "fold change of affinity": 0}
{"binder": "B3", "fold change of affinity": 0.9}
{"binder": "B4", "fold change of affinity": 0.8}
{"binder": "B5", "fold change of affinity": 0}
{"binder": "B6", "fold change of affinity": 1.5}
{"binder": "B7", "fold change of affinity": 0}
{"binder": "B8", "fold change of affinity": 1.1}
{"binder": "B9", "fold change of affinity": 1.5}
{"binder": "B10", "fold change of affinity": 1.6}
{"binder": "B11", "fold change of affinity": 0.9}
{"binder": "B12", "fold change of affinity": 1}
{"binder": "B13", "fold change of affinity": 0}
{"binder": "B14", "fold change of affinity": 0}
{"binder": "B15", "fold change of affinity": 0}
{"binder": "B16", "fold change of affinity": 0}
{"binder": "B17", "fold change of affinity": 1.5}
{"binder": "B18", "fold change of affinity": 1.4}
{"binder": "B19", "fold change of affinity": 0}
{"binder": "B20", "fold change of affinity": 0}
{"binder": "B21", "fold change of affinity": 1.4}
{"binder": "B22", "fold change of affinity": 0}
{"binder": "B23", "fold change of affinity": 0}
{"binder": "B24", "fold change of affinity": 0.5}
{"binder": "B25", "fold change of affinity": 0}
{"binder": "B26", "fold change of affinity": 2.6}
{"binder": "B27", "fold change of affinity": 0}
{"binder": "B28", "fold change of affinity": 0}
{"binder": "B29", "fold change of affinity": 4.8}
{"binder": "B30", "fold change of affinity": 0}
{"binder": "B31", "fold change of affinity": 0}
{"binder": "B32", "fold change of affinity": 1.3}
{"binder": "B33", "fold change of affinity": 0}
{"binder": "B34", "fold change of affinity": 1.5}
{"binder": "B35", "fold change of affinity": 0}
{"binder": "B36", "fold change of affinity": 1.9}
{"binder": "B37", "fold change of affinity": 4.2}
{"binder": "B38", "fold change of affinity": 0}
{"binder": "B39", "fold change of affinity": 0.9}
{"binder": "B40", "fold change of affinity": 0}
{"binder": "B41", "fold change of affinity": 0.6}
{"binder": "B42", "fold change of affinity": 0}
{"binder": "B43", "fold change of affinity": 1.2}
{"binder": "B44", "fold change of affinity": 1}
{"binder": "B45", "fold change of affinity": 0.9}
